Assay results published in the supplement of paper PMC7877785.
± gives the uncertainty stated by the source.

Assay: self-splicing fitness, log relative to wild type (ln ratio); higher = more splicing; Tetrahymena group I intron in knt gene, E. coli kanamycin selection, DiMSum; sequences stand for … in CUCUCU…GGAGGGAAAAGUUAUCAGGCAUGCACCUGGUAGCUAGUCUUUAAACCAAUAGAUUGCAUCGGUUUAAAAGGCAAGACCGUCAAAUUGCGGGAAAGGGGUCAACAGCCGUUCAGUACCAAGUCUCAGGGGAAACUUUGAGAUGGCCUUGCAAAGGGUAUGGUAAUAAGCUGACGGACAUGGUCCUAACCACGCAGCCAAGUCCUAAGUCAACAGAUCUUCUGUUGAUAUGGAUGCAGUUCACAGACUAAAUGUCGGUCGGGGAAGAUGUAUUCUUCUCAUAAGAUAUAGUCGGACCUCUCCUUAAUGGGAGCUAGCGGAUGAAGUGAUGCAACACUGGAGCCGCUGGGAACUAAUUUGUAUGCGAAAGUAUAUUGAUUAGUUUUGGAGUACUCGUGGUCG
Summary of the method: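 Pooled colonies went to amplicon sequencing on an Illumina HiSeq 2500 after six replicate transformations. The plates were LB agar with 100 μg/mL carbenicillin, 50 μM IPTG and 0.2% rhamnose, with or without 25 μg/mL kanamycin, incubated overnight at 37°C or 30°C. The E. coli BL21(DE3) library had all eight P1ex-region intron nucleotides randomised, the intron placed in the knt kanamycin-resistance gene on pET-22b(+). DiMSum fitness is the error-weighted combination of replicate fold changes, kanamycin against none, normalised to wild type.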

| Sequence | self-splicing fitness (ln) (30 °C) | self-splicing fitness (ln) (37 °C) |
| --- | --- | --- |
| CUGUAGCAAUAUUACGUGGU | -3.42 ± 0.24 | -2.75 ± 0.28 |
| CUGUAGCAAUAUUACGUGUG | -1.79 ± 0.058 | -0.37 ± 0.071 |
| CUUAAGCAAUAUUACGAUCU | -3.14 ± 0.37 | -1.48 ± 0.31 |
| CUUAAGCAAUAUUACGCAGA | -3.41 ± 0.36 | -1.93 ± 0.24 |
| CUUAAGCAAUAUUACGCUCU | -2.77 ± 0.13 | -2.81 ± 0.32 |
| CUUAAGCAAUAUUACGGAGC | – | -4.02 ± 0.39 |
| CUUAAGCAAUAUUACGGCAC | -3.43 ± 0.43 | – |
| CUUAAGCAAUAUUACGGCGC | -3.46 ± 0.37 | -2.7 ± 0.28 |
| CUUAAGCAAUAUUACGGUCC | -1.36 ± 0.29 | – |
| CUUCAGCAAUAUUACGAACG | -0.295 ± 0.062 | 0.406 ± 0.093 |
| CUUCAGCAAUAUUACGACAC | – | -1.11 ± 0.24 |
| CUUCAGCAAUAUUACGACUU | -4.07 ± 0.29 | -2.34 ± 0.21 |
| CUUCAGCAAUAUUACGAGAU | -3.35 ± 0.23 | -2.43 ± 0.26 |
| CUUCAGCAAUAUUACGAUUU | -3.34 ± 0.21 | -2.33 ± 0.18 |
| CUUCAGCAAUAUUACGCACC | -3.9 ± 0.47 | -2.61 ± 0.35 |
| CUUCAGCAAUAUUACGCAUA | -4.27 ± 0.37 | -1.82 ± 0.17 |
| CUUCAGCAAUAUUACGCCGU | -3.17 ± 0.35 | -2.05 ± 0.29 |
| CUUCAGCAAUAUUACGCGUC | -2.6 ± 0.23 | -0.821 ± 0.14 |
| CUUCAGCAAUAUUACGGGCA | -3.21 ± 0.4 | -2.64 ± 0.27 |
| CUUCAGCAAUAUUACGGUAC | -3.21 ± 0.35 | -2.02 ± 0.33 |
| CUUCAGCAAUAUUACGGUAU | -3.47 ± 0.35 | -2 ± 0.2 |
| CUUCAGCAAUAUUACGGUUU | -3.8 ± 0.15 | -2.55 ± 0.13 |
| CUUCAGCAAUAUUACGUAUC | -4.15 ± 0.27 | -2.48 ± 0.23 |
| CUUCAGCAAUAUUACGUCGC | -2.22 ± 0.36 | -2.3 ± 0.42 |
| CUUCAGCAAUAUUACGUGAU | -3.65 ± 0.12 | -2.55 ± 0.12 |
| CUUGAGCAAUAUUACGAACG | -0.921 ± 0.13 | 0.12 ± 0.18 |

| Sequence | self-splicing fitness (ln) (30 °C) | self-splicing fitness (ln) (37 °C) |
| --- | --- | --- |
| CUUGAGCAAUAUUACGAAGG | -1.97 ± 0.2 | – |
| CUUGAGCAAUAUUACGAAUU | -3.53 ± 0.33 | -3.19 ± 0.47 |
| CUUGAGCAAUAUUACGACGA | -2.83 ± 0.42 | -2.51 ± 0.45 |
| CUUGAGCAAUAUUACGACGU | -3.62 ± 0.35 | -2.25 ± 0.21 |
| CUUGAGCAAUAUUACGAGCC | -1.39 ± 0.33 | – |
| CUUGAGCAAUAUUACGCAUU | – | -2.02 ± 0.35 |
| CUUGAGCAAUAUUACGCCAC | -2.82 ± 0.49 | – |
| CUUGAGCAAUAUUACGCCUA | – | -3.13 ± 0.44 |
| CUUGAGCAAUAUUACGCGCA | -2.81 ± 0.27 | -2.23 ± 0.33 |
| CUUGAGCAAUAUUACGCGCU | -2.45 ± 0.29 | -1.22 ± 0.39 |
| CUUGAGCAAUAUUACGGAGC | – | -1.42 ± 0.29 |
| CUUGAGCAAUAUUACGGAGG | -2.13 ± 0.19 | -1.67 ± 0.16 |
| CUUGAGCAAUAUUACGGAUG | -1.75 ± 0.11 | -0.176 ± 0.11 |
| CUUGAGCAAUAUUACGGCAG | -1.01 ± 0.11 | -0.0287 ± 0.15 |
| CUUGAGCAAUAUUACGGCCU | -3.92 ± 0.37 | – |
| CUUGAGCAAUAUUACGGCGC | -3.72 ± 0.43 | -1.55 ± 0.41 |
| CUUGAGCAAUAUUACGGCGG | -1.13 ± 0.1 | -0.746 ± 0.14 |
| CUUGAGCAAUAUUACGGUCA | -1.65 ± 0.18 | -3.58 ± 0.46 |
| CUUGAGCAAUAUUACGUAUA | -3.5 ± 0.2 | -2.96 ± 0.28 |
| CUUGAGCAAUAUUACGUAUC | -3.35 ± 0.19 | -3.22 ± 0.33 |
| CUUGAGCAAUAUUACGUCUA | -2.76 ± 0.46 | – |
| CUUUAGCAAUAUUACGAAGG | -1.23 ± 0.11 | -1.85 ± 0.21 |
| CUUUAGCAAUAUUACGACUA | – | -1.32 ± 0.42 |
| CUUUAGCAAUAUUACGACUG | -0.867 ± 0.094 | 0.418 ± 0.15 |
| CUUUAGCAAUAUUACGAGAG | -4.26 ± 0.34 | -2.03 ± 0.28 |
| CUUUAGCAAUAUUACGAUAA | -2.76 ± 0.15 | -2.64 ± 0.28 |

| Sequence | self-splicing fitness (ln) (30 °C) | self-splicing fitness (ln) (37 °C) |
| --- | --- | --- |
| CUUUAGCAAUAUUACGAUGA | -3.2 ± 0.25 | -2.01 ± 0.18 |
| CUUUAGCAAUAUUACGAUGC | -2.95 ± 0.24 | – |
| CUUUAGCAAUAUUACGCACU | -3.69 ± 0.44 | -1.83 ± 0.19 |
| CUUUAGCAAUAUUACGCCCA | -2.92 ± 0.48 | -1.54 ± 0.38 |
| CUUUAGCAAUAUUACGCUUG | -2.98 ± 0.16 | -2.32 ± 0.17 |
| CUUUAGCAAUAUUACGGCAU | -3.42 ± 0.39 | -2.9 ± 0.4 |
| CUUUAGCAAUAUUACGGCCC | -1.71 ± 0.47 | – |
| CUUUAGCAAUAUUACGGCGG | -0.763 ± 0.093 | -0.528 ± 0.12 |
| CUUUAGCAAUAUUACGGCUC | – | -2.16 ± 0.46 |
| CUUUAGCAAUAUUACGGCUG | -1.48 ± 0.14 | -0.483 ± 0.14 |
| CUUUAGCAAUAUUACGGGAA | -2.28 ± 0.22 | -1.58 ± 0.3 |
| CUUUAGCAAUAUUACGGGCG | -0.935 ± 0.12 | 0.00294 ± 0.15 |
| CUUUAGCAAUAUUACGGGGA | -2.88 ± 0.19 | -1.38 ± 0.17 |
| CUUUAGCAAUAUUACGUACU | -2.22 ± 0.23 | -2.82 ± 0.34 |
| CUUUAGCAAUAUUACGUGCU | – | -2.59 ± 0.41 |
| CUUUAGCAAUAUUACGUUGG | -3.1 ± 0.24 | -1.86 ± 0.27 |
| GAAAAGCAAUAUUACGAAAA | -2.25 ± 0.22 | -2.42 ± 0.17 |
| GAAAAGCAAUAUUACGAACA | -0.893 ± 0.1 | 0.0828 ± 0.12 |
| GAAAAGCAAUAUUACGAACC | -0.664 ± 0.14 | -0.705 ± 0.18 |
| GAAAAGCAAUAUUACGACAA | -0.627 ± 0.084 | -0.496 ± 0.096 |
| GAAAAGCAAUAUUACGAGCC | -1.38 ± 0.19 | -0.409 ± 0.18 |
| GAAAAGCAAUAUUACGAGCG | -0.699 ± 0.14 | -0.579 ± 0.15 |
| GAAAAGCAAUAUUACGAGGA | -2.03 ± 0.15 | -1.78 ± 0.16 |
| GAAAAGCAAUAUUACGAGGG | – | -1.77 ± 0.25 |
| GAAAAGCAAUAUUACGAGUG | -1.08 ± 0.073 | -0.813 ± 0.094 |
| GAAAAGCAAUAUUACGAUCA | -0.39 ± 0.067 | -0.234 ± 0.072 |

| Sequence | self-splicing fitness (ln) (30 °C) | self-splicing fitness (ln) (37 °C) |
| --- | --- | --- |
| GAAAAGCAAUAUUACGAUGU | -1.07 ± 0.084 | -0.404 ± 0.096 |
| GAAAAGCAAUAUUACGCAUC | -3.17 ± 0.17 | -2.78 ± 0.18 |
| GAAAAGCAAUAUUACGCCAA | -2.24 ± 0.12 | -1.36 ± 0.12 |
| GAAAAGCAAUAUUACGCCUU | -0.813 ± 0.11 | -0.558 ± 0.13 |
| GAAAAGCAAUAUUACGCUAA | -2.24 ± 0.16 | -1.1 ± 0.13 |
| GAAAAGCAAUAUUACGGCAU | -0.258 ± 0.066 | 0.329 ± 0.083 |
| GAAAAGCAAUAUUACGGUUU | -0.79 ± 0.057 | -0.332 ± 0.076 |
| GAAAAGCAAUAUUACGUAAU | -1.78 ± 0.066 | -1.47 ± 0.087 |
| GAAAAGCAAUAUUACGUACU | -0.864 ± 0.069 | -0.0522 ± 0.1 |
| GAAAAGCAAUAUUACGUCCU | -0.216 ± 0.089 | 0.514 ± 0.12 |
| GAAAAGCAAUAUUACGUGCC | -1.69 ± 0.19 | -0.25 ± 0.22 |
| GAAAAGCAAUAUUACGUGCG | -1.44 ± 0.095 | 0.264 ± 0.12 |
| GAAAAGCAAUAUUACGUUAU | -1.67 ± 0.07 | -0.868 ± 0.088 |
| GAAAAGCAAUAUUACGUUGU | -4.51 ± 0.2 | -2.22 ± 0.12 |
| GAACAGCAAUAUUACGAAAA | -1.77 ± 0.14 | -1.65 ± 0.12 |
| GAACAGCAAUAUUACGAAGG | -2.59 ± 0.17 | -3.26 ± 0.28 |
| GAACAGCAAUAUUACGAAUG | -2.42 ± 0.092 | -1.52 ± 0.096 |
| GAACAGCAAUAUUACGACCG | -1.25 ± 0.14 | -0.315 ± 0.17 |
| GAACAGCAAUAUUACGACGC | -0.0786 ± 0.067 | 0.151 ± 0.088 |
| GAACAGCAAUAUUACGAGAA | -3.45 ± 0.25 | -1.44 ± 0.17 |
| GAACAGCAAUAUUACGAUCG | -0.614 ± 0.085 | -0.564 ± 0.11 |
| GAACAGCAAUAUUACGAUCU | -1.33 ± 0.055 | -0.287 ± 0.078 |
| GAACAGCAAUAUUACGAUUU | -0.342 ± 0.05 | -0.476 ± 0.064 |
